Source: FireProtDB (doi:10.1021/bi201411c)

Conditions: Nostoc ellipsosporum, pH 6, 25 °C, GdnHCl, sodium phosphate 20 mM, transition: 2, reversible: yes(90%), whole UniProt chain shown

B1: Cyanovirin-N wild type, P81180 (protein)
chain: LGKFSQTCYNSAIQGSVLTSTCERTNGGYNTSSIDLNSVIENVDGSLKWQPSNFIETCRNTQLAGSSELAAECKTRAQQFVSTKINLDDHIANIDGTLKYE
Q: Which results are given for B1?
A: denaturant m value (CD): 2 kcal/mol/M; denaturant midpoint (higher = more stable) (CD): 2.5 M; denaturant m value (fluorescence): 1.9 kcal/mol/M; denaturant midpoint (higher = more stable) (fluorescence): 2.6 M
